Experimental data: paper PMC12618078

Assays:
RIF1 = RIF1 (UniProt Q5UIP0); experiment: reciprocal co-IP, Western blot; details: reference: WT 53BP1 (before and 1 h after IR); sites T334
PTIP = PTIP (UniProt Q6ZW49); experiment: reciprocal co-IP, Western blot; details: reference: WT 53BP1 (before and 1 h after IR); sites T334

## 53BP1 (from UniProt Q12888) T334A 53BP1 (before and 1 h after IR)
RIF1
  binding against the reference: stronger
PTIP
  binding against the reference: stronger
